According to patent publication US7964700B2, “Inhibitors of Taspase1 protease activity” (Dana-Farber Cancer Institute, Inc., priority 2003, dated 2011):
No end group written: not given here.

Biological target: T1, rTaspase1 (Homo sapiens, UniProt Q9H6P5)
T1 construct: Full-length Taspase1 was cloned from 293T cell cDNA and inserted into the Myc/Flag doubly-tagged expression vector; made in house; host or cells: E. coli BL21(DE3)
T1 sequence (Q9H6P5 1-233): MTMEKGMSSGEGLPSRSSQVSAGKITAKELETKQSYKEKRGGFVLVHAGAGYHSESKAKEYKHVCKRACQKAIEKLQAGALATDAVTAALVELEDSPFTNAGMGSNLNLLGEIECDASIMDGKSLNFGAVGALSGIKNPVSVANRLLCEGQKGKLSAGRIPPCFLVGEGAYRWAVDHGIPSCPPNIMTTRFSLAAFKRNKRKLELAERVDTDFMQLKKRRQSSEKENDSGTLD
T1 sequence (Q9H6P5 234-420): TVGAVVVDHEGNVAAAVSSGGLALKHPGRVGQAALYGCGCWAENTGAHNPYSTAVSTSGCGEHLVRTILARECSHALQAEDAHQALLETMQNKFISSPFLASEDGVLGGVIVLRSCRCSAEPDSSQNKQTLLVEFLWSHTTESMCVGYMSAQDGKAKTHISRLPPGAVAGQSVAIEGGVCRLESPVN
Assay: In vitro cleavage assay: labeled MLL substrate incubated with rTaspase1 and peptide inhibitor, SDS-PAGE and autoradiography
Type: biochemical
Details: for inhibitory effect on the rTaspase1 enzyme (MLL substrate cleavage) / dose response: effectiveness of polypeptide-aldehyde Taspase1 inhibitors: 5 ng rTaspase1, 20 minutes; for inhibitory effect on the rTaspase1 enzyme (MLL substrate cleavage): then labeled substrate 60 minutes at 37° C.; for dose response: effectiveness of polypeptide-aldehyde Taspase1 inhibitors: concentrations of FIGS. 11A-11C
Experimental: Polypeptides of varying length (i.e., 4 to 7 amino acids in length) were prepared to identify preferred lengths and sequences of polypeptide inhibitors of Taspase1. The polypeptide inhibitors were based on the amino acid sequence that includes a upstream portion of the CS2 cleavage site of MLL as well as a portion of the CS2 cleavage site (See FIG. 1B and FIG. 9). The peptide inhibitors were purchased from Tufts University Peptide Core Facility and AnaSpec Inc. of San Jose, Calif. 1 mM of each of the inhibitors was incubated with 5 ng of rTaspase1 for 20 minutes before adding labeled substrate for another 60 minutes at 37° C. The results were analyzed by SDS-PAGE followed by autoradiography.
In order to determine a preferred length of polypeptide inhibitors of Taspase1, dose responses were tested for a six amino acid polypeptide inhibitor (KISQLA) (SEQ ID NO:8) and a five amino acid polypeptide inhibitor (ISQLA) (SEQ ID NO:7). The polypeptides were incubated at the concentrations depicted in FIG. 10 with 5 ng of rTaspase1 for 20 minutes before adding labeled MLL substrate for another 60 minutes at 37° C. The results were analyzed by SDS-PAGE followed by autoradiography.
Three modified polypeptide inhibitors were prepared wherein the carboxy terminals of the polypeptides were replaced with an aldehyde (SQLA-aldehyde (SEQ ID NO:17), SQLD-aldehyde (SEQ ID NO:9), and KISQLD-aldehyde (SEQ ID NO:11)). Chemical syntheses of these modified polypeptides is well known to one of skill in the art, and the modified polypeptides are also are available commercially at AnaSpec Inc. of San Jose, Calif. The polypeptides were incubated in the concentrations depicted in FIGS. 11A-11C with 5 ng of rTaspase1 for 20 minutes before adding labeled MLL substrate for another 60 minutes at 37° C. The results were analyzed by SDS-PAGE followed by autoradiography. […] Accordingly, the modified polypeptides can keep the active site of the enzyme occupied for a greater length of time, blocking entrance of the MLL substrate from entering the active site as required for cleavage. […] (See FIG. 11C.).
^35S-methionine labeled MLL substrate was incubated with 2 μl of indicated subcellular fractions or specified amounts of rTaspase1 in cleavage buffer (100 mM HEPES [pH 7.9], 5 mM MgCl2, 20 mM KCl, 5 mM DTT, and 10% sucrose) for 1 hour at 37° C. or indicated periods of time. Protease inhibitors utilized include 8.5 μM Phosphoramidon, 100 μM TLCK, 100 μM TPCK, 5 mM Iodoacetamide, 5 mM N-Ethylmaleimide, 0.3 μM Aprotinin, 100 μM Leupeptin, 1 μM Pepstatin, 1× Complete protease inhibitor cocktail (Roche), 100 μM Antipain, 100 μM APMSF, 10 μM Bestatin, 25 μM ALLN, 100 μM Chymostatin, […] E-64, 5 mM EDTA, 1 mM PMSF, 1 mM EGTA, 50 μM BAF (Boc-Aspartyl-FMK), and 50 μM z-VAD (z-VAD-FMK).

[1] = then labeled MLL substrate 60 minutes at 37° C.

Ile-Ser-Gln-Leu-Ala (ISQLA; listed as Homo sapiens)
dose response: effectiveness as Taspase1 inhibitor, five versus six amino acid polypeptide (concentrations of FIG. 10, 5 ng rTaspase1, 20 minutes, then labeled MLL substrate 60 minutes at 37° C.): more effective inhibitor at lower concentrations than the corresponding six amino acid polypeptide

Ile-Ser-Gln-Leu-Asp (ISQLD; listed as Homo sapiens)
inhibitory effect on the rTaspase1 enzyme (MLL substrate cleavage) (1 mM inhibitor, FIG. 9): little inhibitory effect

KISQA: polypeptide with P1 alanine and omission of the leucine residue at P2 (listed as Homo sapiens)
inhibitory effect on the rTaspase1 enzyme (MLL substrate cleavage) (1 mM inhibitor, FIG. 9): inhibitory effect was observed | inhibition of rTaspase1 relative to ISQLA (P2 leucine omitted) (1 mM inhibitor, 5 ng rTaspase1, FIG. 9): significantly decreased inhibition

KISQLA
inhibitory effect on the rTaspase1 enzyme (MLL substrate cleavage) (1 mM inhibitor, FIG. 9): inhibitory effect was observed

KISQLD: six amino acid polypeptide based on the sequence upstream of the CS2 cleavage site of MLL (listed as Homo sapiens)
inhibitory effect on the rTaspase1 enzyme (MLL substrate cleavage) (1 mM inhibitor, FIG. 9): little inhibitory effect

KISdQLA: polypeptide where the P1 aspartate residue was substituted for an alanine residue (KISDQLA; not fully specified (residue 4); printed as KISdQLA; listed as Homo sapiens)
inhibitory effect on the rTaspase1 enzyme (MLL substrate cleavage) (1 mM inhibitor, FIG. 9): inhibitory effect was observed

Lys-Ile-Ser-Gln-Leu-Asp-aldehyde (KISQLD-aldehyde)
dose response: effectiveness of polypeptide-aldehyde Taspase1 inhibitors [1]: more effective than both of the four amino acid aldehyde

SQLD: four amino acid polypeptide based on the sequence upstream of the CS2 cleavage site of MLL (listed as Homo sapiens)
inhibitory effect on the rTaspase1 enzyme (MLL substrate cleavage) (1 mM inhibitor, FIG. 9): little inhibitory effect

Ser-Gln-Leu-Asp-aldehyde (SQLD-aldehyde)
dose response: effectiveness of polypeptide-aldehyde Taspase1 inhibitors [1]: more effective inhibitor than the SQLA-aldehyde
